In patent US20250051476A1 (ABDERA THERAPEUTICS, published 2025):
Each block holds one binder with its values, some of them ahead of it.

Assays:
DLL3 ECD = biological target: T1, DLL3 ECD (human, UniProt Q9NYJ7); experiment: ELISA on coated full length DLL3 ECD (2 ug/ml), anti-hIgG-Fc-HRP, A450
T1 construct: recombinant ECD aa 27-492; also called full length DLL3 ECD (aa 27-492, Cat #ab255797, Abcam); human DLL3.HIS
T1 sequence (antigen, looked up): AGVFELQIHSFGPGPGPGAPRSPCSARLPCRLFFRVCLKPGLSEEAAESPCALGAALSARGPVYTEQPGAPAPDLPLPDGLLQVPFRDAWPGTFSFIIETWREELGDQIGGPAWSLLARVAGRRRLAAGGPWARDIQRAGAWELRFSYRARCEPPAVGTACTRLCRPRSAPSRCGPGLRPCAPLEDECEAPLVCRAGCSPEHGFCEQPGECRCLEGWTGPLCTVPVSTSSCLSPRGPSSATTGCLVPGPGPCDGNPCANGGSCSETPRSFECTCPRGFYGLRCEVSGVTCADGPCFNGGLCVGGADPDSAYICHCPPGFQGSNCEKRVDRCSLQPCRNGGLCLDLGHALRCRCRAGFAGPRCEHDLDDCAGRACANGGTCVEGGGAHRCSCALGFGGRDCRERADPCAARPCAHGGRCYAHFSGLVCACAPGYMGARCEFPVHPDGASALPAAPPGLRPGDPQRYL

[1] = biological target: T2, DLL3 on cells (SHP-77, NCI-H82, HEK-DLL3, membrane proteome array cells) (human, UniProt Q9NYJ7 27-618); experiment: flow cytometry on DLL3 expressing SHP-77 cells
T2 construct: whole, on cells; also called hDLL3
T2 sequence (looked up): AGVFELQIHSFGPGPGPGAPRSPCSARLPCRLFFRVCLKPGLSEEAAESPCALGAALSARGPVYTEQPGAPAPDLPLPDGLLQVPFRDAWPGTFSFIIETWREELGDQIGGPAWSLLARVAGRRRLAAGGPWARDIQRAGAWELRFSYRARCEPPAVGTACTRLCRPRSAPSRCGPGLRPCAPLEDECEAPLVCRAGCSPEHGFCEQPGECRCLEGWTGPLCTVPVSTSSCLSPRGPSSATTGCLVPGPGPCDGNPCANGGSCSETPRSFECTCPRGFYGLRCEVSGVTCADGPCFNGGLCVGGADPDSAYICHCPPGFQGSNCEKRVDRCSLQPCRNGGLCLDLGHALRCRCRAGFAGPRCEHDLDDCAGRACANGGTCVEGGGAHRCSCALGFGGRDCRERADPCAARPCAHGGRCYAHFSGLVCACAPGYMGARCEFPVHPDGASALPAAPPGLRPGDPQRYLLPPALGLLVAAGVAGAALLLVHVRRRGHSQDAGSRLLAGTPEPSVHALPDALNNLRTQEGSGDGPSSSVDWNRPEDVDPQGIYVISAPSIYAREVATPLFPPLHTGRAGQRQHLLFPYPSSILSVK

- EC50 (read off the curve) (DLL3 ECD): ~800 pM
B1: Sc16.23 (antibody, V domains shown)
VH: QVTLKESGPGILQPSQTLSLTCSFSGFSLSTSNTGIGWIRQPSGTGLEWLAHIWWNDDKYYNPSLKSRLTISKETSNNQVFLKITNVDTADTASYFCVQIGRDYSNYAWYFDVWGAGTTVTVSS
VL: QIVLTQSPAIMSASPGEKVTLTCSASSSVSSRYLYWYQQKPGSSPKLWIYSTSNLASGVPARFSGSGSGTSYSLIISSMEAEDAASYFCHQWSNYPLTFGAGTKLELK

- binding result [1]: binds
B2: 126_zu1 (Fc fusion)
chain: QVQLVESGGGLVQPGGSLRLSCAASGITFSMYSMSWFRQAPGQGLEAVAATTTFGSTNYADSVKGRFTISRDNSKNTLYLQMNSLRAEDTAVYYCAARFTSEEYWGQGTLVTVSSEPKSSDKTHTCPPCPAPEAEGAPSVFLFPPKPKDTLMISRTPEVTCVVVDVSHEDPEVKFNWYVDGVEVHNAKTKPREEQYNSTYRVVSVLTVLHQDWLNGKEYKCKVSNKALPSSIEKTISKAKGQPREPQVYTLPPSREEMTKNQVSLTCLVKGFYPSDIAVEWESNGQPENNYKTTPPVLDSDGSFFLYSKLTVDKSRWQQGNVFSCSVMHEALHNQYTQKSLSLSPG
notes: Humanized VHHFc
